In paper PMC2198996 one finds stoichiometry N data, which are given here for 1 substance.

This experiment deals with HA1.7 TCR-β chain (human). Description: co-IP.

Substance HA1.7 TCR-α chain displayed a stoichiometry N of 1.

A word on the stoichiometry N: it is a count of units in the complex or per binding partner.
